{"source": "paper PMC6181919", "key": {"[1]": {"biological_target": "FLAG-tagged Ser1169Cys (S2C) C-Proα2(I) (human)", "assay": "non-reducing SDS-PAGE immunoblot; wild-type C-Proα1(I) and S2C C-Proα2(I) co-expressed at 1:1, 2:1 and 5:1; media depleted by HA immunoprecipitation, unbound fraction FLAG-immunoprecipitated, elutions on a non-reducing SDS-PAGE gel"}, "[2]": {"biological_target": "FLAG-tagged Ser1169Cys (S2C) C-Proα2(I) (human)", "assay": "non-reducing SDS-PAGE immunoblot; conditioned media of transfected HEK293 cells, treated with 100 mM iodoacetamide, boiled in SDS, 12% gel, non-reducing; denaturing, shows disulfide-linked species only; two-colour detection of HA and FLAG"}, "[3]": {"biological_target": "FLAG-tagged Ser1169Cys (S2C) C-Proα2(I) (human)", "assay": "co-IP; sequential: conditioned media of co-transfected HEK293 cells, anti-FLAG beads (C-Proα2(I)), FLAG peptide elution, then HA beads (C-Proα1(I)); non-reducing, washes with 50 mM EDTA to deplete Ca^2+, 4 °C; reducing SDS-PAGE immunoblot; ratio by quantified blots"}, "[4]": {"biological_target": "purified S2C (Ser1169Cys) C-Proα2(I), His tag cleaved (human)", "assay": "AUC; sedimentation equilibrium, 25 °C, 20 mM Bis-Tris propane pH 7, 150 mM NaCl, with 0.5 mM CaCl2; monomer to trimer"}, "[5]": {"biological_target": "purified S2C (Ser1169Cys) C-Proα2(I), His tag cleaved (human)", "assay": "AUC; sedimentation equilibrium, 25 °C, 20 mM Bis-Tris propane pH 7, 150 mM NaCl, without Ca^2+; equilibrium constants are of monomer to dimer"}, "[6]": {"biological_target": "purified wild-type C-Proα2(I), His tag cleaved (human)", "assay": "AUC; sedimentation equilibrium, 25 °C, 20 mM Bis-Tris propane pH 7, 150 mM NaCl, with 0.5 mM CaCl2; monomer to trimer"}, "[7]": {"biological_target": "purified wild-type C-Proα2(I), His tag cleaved (human)", "assay": "AUC; sedimentation equilibrium, 25 °C, 20 mM Bis-Tris propane pH 7, 150 mM NaCl, without Ca^2+; equilibrium constants are of monomer to dimer"}, "[8]": {"biological_target": "wild-type, FLAG-tagged C-Proα2(I) (C-propeptide domain of human Colα2(I)) (human)", "sequence (P08123 23-1366)": "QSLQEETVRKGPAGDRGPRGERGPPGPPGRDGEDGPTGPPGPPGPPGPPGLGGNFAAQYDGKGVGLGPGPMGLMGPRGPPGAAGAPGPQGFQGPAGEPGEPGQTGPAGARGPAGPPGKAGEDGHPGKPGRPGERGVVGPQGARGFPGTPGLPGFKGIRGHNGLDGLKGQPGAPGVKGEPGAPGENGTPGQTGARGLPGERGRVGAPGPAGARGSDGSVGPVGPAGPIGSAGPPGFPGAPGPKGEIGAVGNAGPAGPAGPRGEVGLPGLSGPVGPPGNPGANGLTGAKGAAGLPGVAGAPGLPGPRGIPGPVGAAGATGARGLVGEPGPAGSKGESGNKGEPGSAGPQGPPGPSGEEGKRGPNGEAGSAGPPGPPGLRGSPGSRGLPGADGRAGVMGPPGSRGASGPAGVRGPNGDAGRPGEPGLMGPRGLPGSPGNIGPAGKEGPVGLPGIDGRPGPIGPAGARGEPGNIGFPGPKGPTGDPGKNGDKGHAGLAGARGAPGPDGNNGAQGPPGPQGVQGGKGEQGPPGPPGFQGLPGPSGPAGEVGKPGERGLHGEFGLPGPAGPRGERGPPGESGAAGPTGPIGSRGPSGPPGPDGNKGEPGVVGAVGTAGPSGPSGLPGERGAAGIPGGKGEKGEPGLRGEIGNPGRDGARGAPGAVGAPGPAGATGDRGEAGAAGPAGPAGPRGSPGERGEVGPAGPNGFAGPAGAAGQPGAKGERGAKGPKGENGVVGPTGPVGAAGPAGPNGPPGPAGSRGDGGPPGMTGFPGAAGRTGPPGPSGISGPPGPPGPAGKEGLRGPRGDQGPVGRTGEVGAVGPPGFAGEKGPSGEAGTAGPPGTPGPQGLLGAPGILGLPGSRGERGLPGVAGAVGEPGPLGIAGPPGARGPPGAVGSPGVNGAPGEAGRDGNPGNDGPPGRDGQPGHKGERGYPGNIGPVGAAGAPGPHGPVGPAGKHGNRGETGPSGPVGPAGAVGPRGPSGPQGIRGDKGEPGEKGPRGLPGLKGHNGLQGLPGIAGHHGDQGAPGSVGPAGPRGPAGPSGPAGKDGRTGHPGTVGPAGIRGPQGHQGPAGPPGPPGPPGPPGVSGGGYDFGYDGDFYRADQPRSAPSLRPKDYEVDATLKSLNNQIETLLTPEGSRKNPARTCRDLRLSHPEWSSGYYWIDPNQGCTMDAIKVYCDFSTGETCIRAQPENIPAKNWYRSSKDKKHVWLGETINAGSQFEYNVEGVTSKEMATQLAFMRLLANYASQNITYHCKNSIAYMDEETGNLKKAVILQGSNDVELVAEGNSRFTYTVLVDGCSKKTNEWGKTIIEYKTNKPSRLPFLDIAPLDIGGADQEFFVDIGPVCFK", "assay": "co-IP; sequential: conditioned media of co-transfected HEK293 cells, anti-FLAG beads (C-Proα2(I)), FLAG peptide elution, then HA beads (C-Proα1(I)); non-reducing, washes with 50 mM EDTA to deplete Ca^2+, 4 °C; reducing SDS-PAGE immunoblot; ratio by quantified blots"}, "[9]": {"biological_target": "wild-type, HA-tagged C-Proα1(III) (human)", "assay": "non-reducing SDS-PAGE immunoblot; conditioned media of transfected HEK293 cells, treated with 100 mM iodoacetamide, boiled in SDS, 12% gel, non-reducing; denaturing, shows disulfide-linked species only; two-colour detection of HA and FLAG"}}, "data": [{"substance": "FLAG-tagged Ser1169Cys (S2C) C-Proα2(I) (domain or fragment)", "values": [{"measurement": "stoichiometry N", "setting": "[1]", "result": 3}, {"measurement": "stoichiometry N", "setting": "[2]", "result": 3}]}, {"substance": "HA-tagged Cys1265Ser (C2S) C-Proα1(I) (from UniProt P02452 1219-1464) (domain or fragment)", "values": [{"measurement": "stoichiometry N (C-Proα1(I):C-Proα2(I))", "setting": "[3]", "result": 0.5}]}, {"substance": "purified S2C (Ser1169Cys) C-Proα2(I), His tag cleaved (domain or fragment)", "values": [{"measurement": "stoichiometry N", "setting": "[4]", "result": 3}, {"measurement": "stoichiometry N", "setting": "[5]", "result": 3}]}, {"substance": "purified wild-type C-Proα2(I), His tag cleaved (domain or fragment)", "values": [{"measurement": "stoichiometry N", "setting": "[6]", "result": 3}, {"measurement": "Ka", "setting": "[7]", "result": 6500, "unit": "M⁻¹"}, {"measurement": "stoichiometry N", "setting": "[7]", "result": 2}]}, {"substance": "wild-type, HA-tagged C-Proα1(I) (C-propeptide domain of human Colα1(I)) (from UniProt P02452 1219-1464) (domain or fragment)", "values": [{"measurement": "stoichiometry N (C-Proα1(I):C-Proα2(I))", "setting": "[8]", "result": 2}, {"measurement": "stoichiometry N (C-Proα1(I):C-Proα2(I))", "setting": "[3]", "result": 2}]}, {"substance": "wild-type, HA-tagged C-Proα1(III) (domain or fragment)", "values": [{"measurement": "stoichiometry N", "setting": "[9]", "result": 3}]}]}
